Measured values reported in patent US8911422B2, “Micro-needle device” (Hisamitsu Pharmaceutical Co., Inc., priority 2010, dated 2014).

Test system: rats
Test: in vivo injection with micro-needle device (Example 2), availability
Set-up: species or system rat
Details: coating range 200 μm
Protocol: A micro-needle device similar to that of Example 1 was used to perform in vivo injection (rats) to determine availability. Here, 14C-OVA was coated on each of the micro-needles, and a coating range thereof was 200 μm in height including the top of the micro-needle concerned (that is, the range H=200 μm in FIG. 3 (c)). The 14C-OVA coated on the micro-needle device was about 100 μg in total, and pullulan, that is, a coating carrier, was about 100 μg in total.
On injection, used was a spring impact-type applicator capable of giving an impact due to the elastic energy of 0.4 J/cm^2 to the back face of the micro-needle device. The elastic energy of the spring impact-type applicator is determined by the above-described formula (I). A spring constant for yielding the elastic energy of 0.4 J/cm^2 was 0.569 N/mm. In order to determine the availability, a Geiger-Muller (GM) counter tube was used to count radiant rays, and the measurement result was applied to a previously prepared calibration curve to determine an initially coated quantity and a quantity remaining on the micro-needle device peeled after puncture. Then, the remaining quantity was divided by the initially coated quantity to determine the availability.

B1: 14C-OVA (protein, UniProt P01012 2-386, looked up)
Ovalbumin: GSIGAASMEFCFDVFKELKVHHANENIFYCPIAIMSALAMVYLGAKDSTRTQINKVVRFDKLPGFGDSIEAQCGTSVNVHSSLRDILNQITKPNDVYSFSLASRLYAEERYPILPEYLQCVKELYRGGLEPINFQTAADQARELINSWVESQTNGIIRNVLQPSSVDSQTAMVLVNAIVFKGLWEKAFKDEDTQAMPFRVTEQESKPVQMMYQIGLFRVASMASEKMKILELPFASGTMSMLVLLPDEVSGLEQLESIINFEKLTEWTSSNVMEERKIKVYLPRMKMEEKYNLTSVLMAMGITDVFSSSANLSGISSAESLKISQAVHAAHAEINEAGREVVGSAEAGVDAASVSEEFRADHPFLFCIKHIATNAVLFFGRCVSP
modifications: 14C radiolabel
notes: 14C-OVA coated on the micro-needles with pullulan as coating carrier
availability (impact 0.4 J/cm^2 given once): 38%
availability (impact 0.4 J/cm^2 once, then pushed one minute at 1 kg/patch): 42%
availability (impact 0.4 J/cm^2 once, then pushed one minute at 3 kg/patch): 58%
